From article PMC6363177, “R pyocin tail fiber structure reveals a receptor-binding domain with a lectin fold” (PLoS ONE, 2019)

Columns and labels:
[1] = target: the molecule itself; assay: SEC; analytical Sepharose-200 10/300 column, elution volumes compared with SEC standards (Biorad); samples diluted to 1 mg/mL in 50mM Tris pH 8.0, 150mM NaCl, 5% glycerol
[2] = target: the molecule itself; assay: crystal structure; vapor diffusion crystals at 16°C; trimer formed by crystallographic symmetry, also checked with PISA

| Protein | stoichiometry N [1] | stoichiometry N [2] |
| --- | --- | --- |
| R2-subtype N-terminally truncated tail fiber fragment (R2-NTF) (domain or fragment, R2-subtype pyocin tail fiber PA0620 of Pseudomonas aeruginosa PAO1, residues Y419-R691; numbering relative to native PA0620; Cloned into pMCSG11 (LIC); 32.2 kDa printed; Removal of the tag before crystallisation is not mentioned; also called R2-subtype pyocin tail fiber distal region; PA0620 Y419-R691; source: E. coli BL21 (DE3), co-expressed with chaperone PA0621; in lysate for the Ni-IMAC …) YVRVSYAANPSIREWLPWQRCDIGGSFTKEADGELPGGVNLDSMVTSGWWSQSFTAQAASGANYPIVRAGLLHVYAASSNFIYQTYQAYDGESFYFRCRHSNTWFPWRRMWHGGDFNPSDYLLKSGFYWNALPGKPATFPPSAHNHDVGQLTSGILPLARGGVGSNTAAGARSTIGAGVPATASLGASGWWRDNDTGLIRQWGQVTCPADADASITFPIPFPTLCLGGYANQTSAFHPGTDASTGFRGATTTTAVIRNGYFAQAVLSWEAFGR | 3 |  |
| Selenomethionine-labelled R2-NTF (domain or fragment, selenomethionine in place of methionine, R2-subtype pyocin tail fiber PA0620 of Pseudomonas aeruginosa PAO1, residues Y419-R691 (plasmid pMCSG11/R2-NTF, as m1); numbering relative to native PA0620; Same construct as m1, made in another host and labelled with selenomethionine for Se-SAD phasing; also called Sel-met R2-NTF; selenomethionine replaced R2-NTF; source: E. coli B834 (DE3) methionine auxotroph, co-expressed with PA0621 in M9 …) YVRVSYAANPSIREWLPWQRCDIGGSFTKEADGELPGGVNLDSMVTSGWWSQSFTAQAASGANYPIVRAGLLHVYAASSNFIYQTYQAYDGESFYFRCRHSNTWFPWRRMWHGGDFNPSDYLLKSGFYWNALPGKPATFPPSAHNHDVGQLTSGILPLARGGVGSNTAAGARSTIGAGVPATASLGASGWWRDNDTGLIRQWGQVTCPADADASITFPIPFPTLCLGGYANQTSAFHPGTDASTGFRGATTTTAVIRNGYFAQAVLSWEAFGR |  | 3 |
